Laboratory results taken from paper PMC3691886.
Values belong to the substance of their own block, whether it stands above or below them.

Legend:
[1] = target: bovine α-chymotrypsin (bovine)
[2] = target: bovine α-chymotrypsin (bovine); assay: enzyme inhibition progress curves; pseudo-first-order conditions, 4 h at 25°C, 5-600 nM inhibitor, 200 μM substrate, 0.5 nM bovine α-chymotrypsin
[3] = target: recombinant α1-antitrypsin, M allele with the C232S mutation (AT_(C232S)) (UniProt P01009); assay: FRET or BRET; heat-induced polymerization at 50°C; 0.1 mg/ml protein in 10 mM Na2HPO4/NaH2PO4, 0.1 M NaCl, 0.1% PEG8K, pH 7.4; 2-8 μM ATTO-550-Ni-NTA and ATTO-647N-Ni-NTA on the His tag; apparent rate, corrected to zero dye; monomer to polymer
[4] = target: recombinant α1-antitrypsin, M allele with the C232S mutation (AT_(C232S)) (UniProt P01009); assay: FRET or BRET; heat-induced polymerization at 55°C; 0.1 mg/ml protein in 10 mM Na2HPO4/NaH2PO4, 0.1 M NaCl, 0.1% PEG8K, pH 7.4; 2-8 μM ATTO-550-Ni-NTA and ATTO-647N-Ni-NTA on the His tag; apparent rate, corrected to zero dye; monomer to polymer
[5] = target: recombinant α1-antitrypsin, M allele with the C232S mutation (AT_(C232S)) (UniProt P01009); assay: FRET or BRET; heat-induced polymerization at 60°C; 0.1 mg/ml protein in 10 mM Na2HPO4/NaH2PO4, 0.1 M NaCl, 0.1% PEG8K, pH 7.4; 2-8 μM ATTO-550-Ni-NTA and ATTO-647N-Ni-NTA on the His tag; apparent rate, corrected to zero dye; monomer to polymer
[6] = target: α1-antitrypsin reactive loop mutant P2P1′ (P357D, S359D) on the C232S background (UniProt P01009); assay: FRET or BRET; heat-induced polymerization at 50°C; 0.1 mg/ml protein in 10 mM Na2HPO4/NaH2PO4, 0.1 M NaCl, 0.1% PEG8K, pH 7.4; 2-8 μM ATTO-550-Ni-NTA and ATTO-647N-Ni-NTA on the His tag; apparent rate, corrected to zero dye; monomer to polymer
[7] = target: α1-antitrypsin reactive loop mutant P2P1′ (P357D, S359D) on the C232S background (UniProt P01009); assay: FRET or BRET; heat-induced polymerization at 55°C; 0.1 mg/ml protein in 10 mM Na2HPO4/NaH2PO4, 0.1 M NaCl, 0.1% PEG8K, pH 7.4; 2-8 μM ATTO-550-Ni-NTA and ATTO-647N-Ni-NTA on the His tag; apparent rate, corrected to zero dye; monomer to polymer
[8] = target: α1-antitrypsin reactive loop mutant P2P1′ (P357D, S359D) on the C232S background (UniProt P01009); assay: FRET or BRET; heat-induced polymerization at 60°C; 0.1 mg/ml protein in 10 mM Na2HPO4/NaH2PO4, 0.1 M NaCl, 0.1% PEG8K, pH 7.4; 2-8 μM ATTO-550-Ni-NTA and ATTO-647N-Ni-NTA on the His tag; apparent rate, corrected to zero dye; monomer to polymer
[9] = target: α1-antitrypsin reactive loop mutant P4 (A355D) on the C232S background (UniProt P01009); assay: FRET or BRET; heat-induced polymerization at 50°C; 0.1 mg/ml protein in 10 mM Na2HPO4/NaH2PO4, 0.1 M NaCl, 0.1% PEG8K, pH 7.4; 2-8 μM ATTO-550-Ni-NTA and ATTO-647N-Ni-NTA on the His tag; apparent rate, corrected to zero dye; monomer to polymer
[10] = target: α1-antitrypsin reactive loop mutant P4 (A355D) on the C232S background (UniProt P01009); assay: FRET or BRET; heat-induced polymerization at 55°C; 0.1 mg/ml protein in 10 mM Na2HPO4/NaH2PO4, 0.1 M NaCl, 0.1% PEG8K, pH 7.4; 2-8 μM ATTO-550-Ni-NTA and ATTO-647N-Ni-NTA on the His tag; apparent rate, corrected to zero dye; monomer to polymer
[11] = target: α1-antitrypsin reactive loop mutant P4 (A355D) on the C232S background (UniProt P01009); assay: FRET or BRET; heat-induced polymerization at 60°C; 0.1 mg/ml protein in 10 mM Na2HPO4/NaH2PO4, 0.1 M NaCl, 0.1% PEG8K, pH 7.4; 2-8 μM ATTO-550-Ni-NTA and ATTO-647N-Ni-NTA on the His tag; apparent rate, corrected to zero dye; monomer to polymer
[12] = target: α1-antitrypsin reactive loop mutant P6 (L353D) on the C232S background (UniProt P01009); assay: FRET or BRET; heat-induced polymerization at 50°C; 0.1 mg/ml protein in 10 mM Na2HPO4/NaH2PO4, 0.1 M NaCl, 0.1% PEG8K, pH 7.4; 2-8 μM ATTO-550-Ni-NTA and ATTO-647N-Ni-NTA on the His tag; apparent rate, corrected to zero dye; monomer to polymer
[13] = target: α1-antitrypsin reactive loop mutant P6 (L353D) on the C232S background (UniProt P01009); assay: FRET or BRET; heat-induced polymerization at 55°C; 0.1 mg/ml protein in 10 mM Na2HPO4/NaH2PO4, 0.1 M NaCl, 0.1% PEG8K, pH 7.4; 2-8 μM ATTO-550-Ni-NTA and ATTO-647N-Ni-NTA on the His tag; apparent rate, corrected to zero dye; monomer to polymer
[14] = target: α1-antitrypsin reactive loop mutant P6 (L353D) on the C232S background (UniProt P01009); assay: FRET or BRET; heat-induced polymerization at 60°C; 0.1 mg/ml protein in 10 mM Na2HPO4/NaH2PO4, 0.1 M NaCl, 0.1% PEG8K, pH 7.4; 2-8 μM ATTO-550-Ni-NTA and ATTO-647N-Ni-NTA on the His tag; apparent rate, corrected to zero dye; monomer to polymer
[15] = target: α1-antitrypsin reactive loop mutant P6P4 (L353D, A355D) on the C232S background (UniProt P01009); assay: FRET or BRET; heat-induced polymerization at 50°C; 0.1 mg/ml protein in 10 mM Na2HPO4/NaH2PO4, 0.1 M NaCl, 0.1% PEG8K, pH 7.4; 2-8 μM ATTO-550-Ni-NTA and ATTO-647N-Ni-NTA on the His tag; apparent rate, corrected to zero dye; monomer to polymer
[16] = target: α1-antitrypsin reactive loop mutant P6P4 (L353D, A355D) on the C232S background (UniProt P01009); assay: FRET or BRET; heat-induced polymerization at 55°C; 0.1 mg/ml protein in 10 mM Na2HPO4/NaH2PO4, 0.1 M NaCl, 0.1% PEG8K, pH 7.4; 2-8 μM ATTO-550-Ni-NTA and ATTO-647N-Ni-NTA on the His tag; apparent rate, corrected to zero dye; monomer to polymer
[17] = target: α1-antitrypsin reactive loop mutant P6P4 (L353D, A355D) on the C232S background (UniProt P01009); assay: FRET or BRET; heat-induced polymerization at 60°C; 0.1 mg/ml protein in 10 mM Na2HPO4/NaH2PO4, 0.1 M NaCl, 0.1% PEG8K, pH 7.4; 2-8 μM ATTO-550-Ni-NTA and ATTO-647N-Ni-NTA on the His tag; apparent rate, corrected to zero dye; monomer to polymer
[18] = target: α1-antitrypsin reactive loop mutant P10P8 (G349D, M351D) on the C232S background (UniProt P01009); assay: FRET or BRET; heat-induced polymerization at 50°C; 0.1 mg/ml protein in 10 mM Na2HPO4/NaH2PO4, 0.1 M NaCl, 0.1% PEG8K, pH 7.4; 2-8 μM ATTO-550-Ni-NTA and ATTO-647N-Ni-NTA on the His tag; apparent rate, corrected to zero dye; monomer to polymer
[19] = target: α1-antitrypsin reactive loop mutant P10P8 (G349D, M351D) on the C232S background (UniProt P01009); assay: FRET or BRET; heat-induced polymerization at 55°C; 0.1 mg/ml protein in 10 mM Na2HPO4/NaH2PO4, 0.1 M NaCl, 0.1% PEG8K, pH 7.4; 2-8 μM ATTO-550-Ni-NTA and ATTO-647N-Ni-NTA on the His tag; apparent rate, corrected to zero dye; monomer to polymer
[20] = target: α1-antitrypsin reactive loop mutant P10P8 (G349D, M351D) on the C232S background (UniProt P01009); assay: FRET or BRET; heat-induced polymerization at 60°C; 0.1 mg/ml protein in 10 mM Na2HPO4/NaH2PO4, 0.1 M NaCl, 0.1% PEG8K, pH 7.4; 2-8 μM ATTO-550-Ni-NTA and ATTO-647N-Ni-NTA on the His tag; apparent rate, corrected to zero dye; monomer to polymer
[21] = target: α1-antitrypsin reactive loop mutant P14P12 (T345D, A347D) on the C232S background (UniProt P01009); assay: FRET or BRET; heat-induced polymerization at 50°C; 0.1 mg/ml protein in 10 mM Na2HPO4/NaH2PO4, 0.1 M NaCl, 0.1% PEG8K, pH 7.4; 2-8 μM ATTO-550-Ni-NTA and ATTO-647N-Ni-NTA on the His tag; apparent rate, corrected to zero dye; monomer to polymer
[22] = target: α1-antitrypsin reactive loop mutant P14P12 (T345D, A347D) on the C232S background (UniProt P01009); assay: FRET or BRET; heat-induced polymerization at 55°C; 0.1 mg/ml protein in 10 mM Na2HPO4/NaH2PO4, 0.1 M NaCl, 0.1% PEG8K, pH 7.4; 2-8 μM ATTO-550-Ni-NTA and ATTO-647N-Ni-NTA on the His tag; apparent rate, corrected to zero dye; monomer to polymer
[23] = target: α1-antitrypsin reactive loop mutant P14P12 (T345D, A347D) on the C232S background (UniProt P01009); assay: FRET or BRET; heat-induced polymerization at 60°C; 0.1 mg/ml protein in 10 mM Na2HPO4/NaH2PO4, 0.1 M NaCl, 0.1% PEG8K, pH 7.4; 2-8 μM ATTO-550-Ni-NTA and ATTO-647N-Ni-NTA on the His tag; apparent rate, corrected to zero dye; monomer to polymer

Substance: α1-antitrypsin reactive loop mutant P2P1′ (P357D, S359D) on the C232S background (from UniProt P01009 26-418) (natural protein)
- SI (stoichiometry of inhibition): residual activity of 0.5 μM bovine α-chymotrypsin after 30 min with inhibitor [1]: 100
- k (app,fr) (apparent rate of polymerization) [6]: 0.00022 s⁻¹
- k (app,fr) (apparent rate of polymerization) [7]: 0.0017 s⁻¹
- k (app,fr) (apparent rate of polymerization) [8]: 0.012 s⁻¹

Substance: α1-antitrypsin reactive loop mutant P4 (A355D) on the C232S background (from UniProt P01009 26-418) (natural protein)
- k (app,fr) (apparent rate of polymerization) [9]: 0.00011 s⁻¹
- k (app,fr) (apparent rate of polymerization) [10]: 0.0011 s⁻¹
- k (app,fr) (apparent rate of polymerization) [11]: 0.078 s⁻¹

Substance: α1-antitrypsin reactive loop mutant P6 (L353D) on the C232S background (from UniProt P01009 26-418) (natural protein)
- k (app,fr) (apparent rate of polymerization) [12]: 3.7e-05 s⁻¹
- k (app,fr) (apparent rate of polymerization) [13]: 0.0007 s⁻¹
- k (app,fr) (apparent rate of polymerization) [14]: 0.01 s⁻¹

Substance: α1-antitrypsin reactive loop mutant P6P4 (L353D, A355D) on the C232S background (from UniProt P01009 26-418) (natural protein)
- SI (stoichiometry of inhibition): residual activity of 0.5 μM bovine α-chymotrypsin after 30 min with inhibitor [1]: 89
- k (app,fr) (apparent rate of polymerization) [15]: 9.8e-06 s⁻¹
- k (app,fr) (apparent rate of polymerization) [16]: 0.00044 s⁻¹
- k (app,fr) (apparent rate of polymerization) [17]: 0.0055 s⁻¹

Substance: α1-antitrypsin reactive loop mutant P10P8 (G349D, M351D) on the C232S background (from UniProt P01009 26-418) (natural protein)
- SI (stoichiometry of inhibition): residual activity of 0.5 μM bovine α-chymotrypsin after 30 min with inhibitor [1]: 4.56
- kass•SI [2]: 570000
- kon [2]: 120000 M⁻¹ s⁻¹
- k (app,fr) (apparent rate of polymerization) [18]: 7.2e-05 s⁻¹
- k (app,fr) (apparent rate of polymerization) [19]: 0.00066 s⁻¹
- k (app,fr) (apparent rate of polymerization) [20]: 0.0028 s⁻¹

More lines, now with the values ahead:

- SI (stoichiometry of inhibition): residual activity of 0.5 μM bovine α-chymotrypsin after 30 min with inhibitor [1]: 1.1
- kass•SI [2]: 1.5e+06
- kon [2]: 1.5e+06 M⁻¹ s⁻¹
- k (app,fr) (apparent rate of polymerization) [3]: 0.00021 s⁻¹
- k (app,fr) (apparent rate of polymerization) [4]: 0.0016 s⁻¹
- k (app,fr) (apparent rate of polymerization) [5]: 0.01 s⁻¹
Substance: recombinant α1-antitrypsin, M allele with the C232S mutation (AT_(C232S)) (from UniProt P01009 26-418) (natural protein)

- k (app,fr) (apparent rate of polymerization) [21]: 5.8e-05 s⁻¹
- k (app,fr) (apparent rate of polymerization) [22]: 0.00043 s⁻¹
- k (app,fr) (apparent rate of polymerization) [23]: 0.024 s⁻¹
Substance: α1-antitrypsin reactive loop mutant P14P12 (T345D, A347D) on the C232S background (from UniProt P01009 26-418) (natural protein)
